Experimental data as given in patent US20090060925A1, “Rage Fusion Proteins and Methods of Use” (THE TRUSTEES OF COLUMBIA UNIVERSITY IN THE CITY OF, priority 2004, published 2009).

Legend:
Fc receptor = Fc receptor activation, TNF-α secretion from THP-1 cells; type: cell-based; conditions: well precoated with 10 ug/well heat aggregated protein; 24 hours
Description: Fc stimulation results in TNF-α secretion.

animal model of stroke = test: Mouse model of stroke (carotid artery ligation and reperfusion, infarct); type: in vivo; conditions: Table 2
Experimental: In this model, the middle carotid artery of a mouse was ligated for 1 hour followed by 23 hours of reperfusion at which point the mice were sacrificed and the area of the infarct in the brain was assessed. […] Mice were injected intraperitoneally, 1 hour after the initiation of ischemia. Mice were subjected to one hour of cerebral ischemia followed by 24 hours of reperfusion. To induce ischemia, each mouse was anesthetized and body temperature was maintained at 36-37° C. by external warming. The left common carotid artery (CCA) was exposed through a midline incision in the neck. A microsurgical clip was placed around the origin of the internal carotid artery (ICA). […] After the nylon suture had been in place for 1 hour, the animal was re-anesthetized, rectal temperature was recorded and the suture was removed and the incision closed. Infarct volume was determined by anesthetizing the animals with an intraperitoneal injection of sodium pentobarbital (50 mg/kg) and then removing the brains. […] The infarct area in each section was determined with a computer-assisted image analysis system, consisting of a Power Macintosh computer equipped with a Quick Capture frame grabber card, Hitachi CCD camera mounted on a camera stand. […] The images were captured and the total area of infarct was determined over the sections. […] Summing the infarct volumes of the sections calculated the total infarct volume. […]

[1] = tested on: S100b/RAGE-induced production of TNF-α in THP-1 cells; test: Inhibition of S100b/RAGE-induced production of TNF-α in THP-1 cells; type: cell-based; conditions: 10 μg protein, S100b 0.1 mg/ml, 24 hours
Experimental: THP-1 myeloid cells may be cultured in RPMI-1640 media supplemented with 10% FBS and induced to secrete TNF-α via stimulation of RAGE with S100b. When such stimulation occurs in the presence of a RAGE fusion protein, induction of TNF-α by S100b binding to RAGE may be inhibited.
Previous work has shown that the myeloid THP-1 cells may secrete TNF-α in response to RAGE ligands. In this assay, THP-1 cells were cultured in RPMI-1640 media supplemented with 10% FBS using a protocol provided by ATCC. […] The amount of TNF-α secreted by the THP-1 cells was measured 24 hours after the addition of the proteins to the cell culture using a commercially available ELISA kit for TNF-α (R&D Systems, Minneapolis, Minn.).

amyloid-beta = test: Competition of a RAGE ligand with immobilized amyloid-beta for binding to the fusion protein; conditions: RAGE ligand FAC 10 μM
Experimental: The fusion protein of the present invention may also be used to identify compounds having the ability to bind to RAGE.
Known RAGE ligands were coated onto the surface of Maxisorb plates at a concentration of 5 micrograms per well. Plates were incubated at 4° C. overnight. Following ligand incubation, plates were aspirated and a blocking buffer of 1% BSA in 50 mM imidizole buffer (pH 7.2) was added to the plates for 1 hour at room temperature. The plates were then aspirated and/or washed with wash buffer (20 mM Imidizole, 150 mM NaCl, 0.05% Tween-20, 5 mM CaCl2 and 5 mM MgCl2, pH 7.2). […] The fusion protein was added at increasing dilutions of the initial sample. The RAGE fusion protein was allowed to incubate with the immobilized ligand at 37° C. for one hour after which the plate was washed and assayed for binding of the fusion protein. Binding was detected by the addition of an immunodetection complex containing a monoclonal mouse anti-human IgG1 diluted 1:11,000 to a final assay concentration (FAC) of 21 ng/100 μL, a biotinylated goat anti-mouse IgG diluted 1:500, to a FAC of […], and an avidin-linked alkaline phosphatase. […] Binding of the complex to the immobilized fusion protein was quantified by measuring conversion of PNPP to para-nitrophenol (PNP) which was measured spectrophotometrically at 405 nm. […]

B1: TTP-4000: four domain RAGE fusion protein, SEQ ID NO: 32: human RAGE amino acids 1-251 linked to CH2 and CH3 domains of human IgG (protein, listed as Homo sapiens)
chain: MAAGTAVGAWALVLSLWGAVVGAQNITARIGEPLVLKCKGAPKKPPQRLEWKLNTGRTEAWKVLSPQGGGPWDSVARVLPNGSLFLPAVGIQDEGIFRCQAMNRNGKETKSNYRVRVYQIPGKPEIVDSASELTAGVPNKVGTCVSEGSYPAGTLSWHLDGKPLVPNEKGVSVKEQTRRHPETGLFTLQSELMVTPARGGDPRPTFSCSFSPGLPRHRALRTAPIQPRVWEPVPLEEVQLVVEPEGGAVAPPSVFLFPPKPKDTLMISRTPEVTCVVVDVSHEDPEVKFNWYVDGVEVHNAKTKPREEQYNSTYRVVSVLTVLHQDWLNGKEYKCKVSNKALPAPIEKTISKAKGQPREPQVYTLPPSRDELTKNQVSLTCLVKGFYPSDIAVEWESNGQPENNYKTTPPVLDSDGSFFLYSKLTVDKSRWQQGNVFSCSVMHEALHNHYTQKSLSLSPGK
For B1, the “TNF secreted by THP-1 cells” value (Fc receptor) was “less than 2 ng/well”, the “limiting the area of infarct, compared with sRAGE” value (animal model of stroke) was “more efficacious than sRAGE” and the “effect on S100b induction of TNF-α, in words” value [1] was “at least as effective in blocking S100b induction of TNF-α as is sRAGE”. The “binding of fusion protein to immobilized amyloid-beta inhibited by the RAGE ligand” value (amyloid-beta; fusion protein initial solution diluted 1:10) was “completely inhibited” and the “binding of fusion protein to immobilized amyloid-beta inhibited by the RAGE ligand” value (amyloid-beta; fusion protein initial solution diluted 1:30) was “completely inhibited”.
